According to article PMC2710508:

Key:
[1] = biological target: F-actin from chicken pectoral skeletal muscle (chicken) (UniProt P68139); assay: differential scanning calorimetry; tropomyosin 15 µM and TnT 70–170 18 µM with phalloidin (36 µM) stabilized F-actin (24 µM), 100 mM NaCl, 10 mM Hepes pH 7.0, 2 mM MgCl2, 1 mM DTT; three heating scans at 1°C/min; peak of unfolding/dissociation of actin-bound tropomyosin
[2] = biological target: F-actin from chicken pectoral skeletal muscle (chicken) (UniProt P68139); assay: co-sedimentation; tropomyosin 0.1–10 µM with 0.12–12 µM troponin T 70–170 (1.2× molar excess) and 5 µM F-actin, 20°C, 250 mM NaCl, 10 mM TrisHCl pH 7.5, 2 mM MgCl2, 0.5 mM DTT; pellets and supernatants by SDS-PAGE and densitometry; apparent constant (Kapp) and Hill coefficient from a fit to the Hill equation
F-actin = F-actin (UniProt P68133); assay: given as Ka; conditions: cited from earlier work

DSC TM of dissociation from F-actin (TM3) [1] [°C]	DSC ΔΔH (with minus without F-actin) [1] [kJ/mol]	Ka [2] [M⁻¹]	Substance	association constant (Ka) (F-actin) [µM]
37.6	157	1.33e+06	P5→P3 tropomyosin (residues 165–188 of P5 replace residues 88–111 of P3) (from UniProt P04692 1-284) (natural protein)	–
–	–	–	tropomyosin (from UniProt P09493)	400
